Results on seven sequences are retold here after the DeepSol protein solubility set.

A short description of this series: soluble on expression in E. coli; label from the status in PepcDB or PDB records.
Turning to “MSQSTSSEGSGPAAKIARKNSPENDPETAEMFIVDEITDMRYSTTCRQLQFLVKWAIPGSEMTWQPLDDFPFGLNHFSILDYRKDHEEKYEACLQKQRRSKVMKDDDRSWNVSRNSNRSRNRSKSSSKPAQRTEPMTQREKFDAILQISEISLEKQYKLTNKKVPRRSQFTDPDAPKKKSKGARHYRDQNLKTLFKSSLIRKYRKPQESDDDLEPDVAQDSPENTPAPPTKSPESSGFSENLENLGANTPSPSPDFEEEHLEKKPETGNLTENRPKRVYSHETAESMENYAKLLLYTAFDTKSWETLGGHIKNGFRLSFVCSNGLTIIENVVELNKNLNKFSDSRESRMVADLFELLLKKGVEFDEKTLPPTMCAAVRSTRYDIRRDFRCLHNQYIDKRPRMCEWFSATGGGGSCGTTEICTFWNNDAGYLPNTHQRSKFHVDLSEFTGNNLGLLAFSMAWHEDFIDNNSGGPEIVKNNRFNAHIDVPCFTLWMNGKMCEKLENSHGLSIFRPLGTVLDVNELKIKITEHSSRFVAILPVFNLNSDWKNCFFPLENQ”, the “soluble on expression in E. coli” value is “not soluble”. Turning to “MGSDKIHHHHHHENLYFQGMTEKSQEPTAALDAEQVAAYLSQHPEFFVEHDELIPELRIPHQPGDAVSLVERQVRLLRERNIEMRHRLSQLMDVARENDRLFDKTRRLVLDLLDATSLEDVVSTVEDSLRHEFQVPYVSLILFSDSSVSVGRSVSSAEAHQAIGGLLSGGKTVCGVLRPHELAFLFGESDRDEIGSAAVVSLSFQGLHGVLAIGSPDPQHYKSSLGTLFLGYVAEVLARVLPRFSSPLRSVR”, the “soluble on expression in E. coli” value was “soluble”. With “MSLCGIAGLFNCNLPADELRLDQAVAKLTHRGPDDRGIFLDGRFGMGHTRLSIIDLAGGHQPLFSEDRRLALIANGEIYNFIELRSELTAAGFRFQTQSDSEVILHAYLAFGEGFLERIQGMFAFALYDALEGRLILARDRLGIKPLFLARRPDGIAFASEIKALLPLLDQPREIDPQGLAQYFQNQFSTGATTVLRGVERVLPGEAVVVEAGKTTRRFRYWSPLAVRTEELDFDEAAARFDALMERVMVEHMRSDVPFGLFLSGGVDSSLLLALLTRYSGEPIRTFSVGFPGTSLTDELPLAEGLARRFRSRHREIRPGPQDILHSLPLTVWAADDLMRDNASLPTSLLARAAGEELKVVFSGEGGDEVFAGYGRYRTSPLERLFKSLLAPGSGGFRTRGSFRGRWPKTLFGPALLAAAQSARRPVQESWRETPREWSDLQRMQYVDLCHALPDNLLVKADRMLMAWGVEGRVPFLDHRVVEFGLSLPDRLKIEGRQGKLFLKRWGERLVPAEQLYARKEGHHHHHH” the entry was “not soluble”. The value for “MIEVKPINAEDTYELRHRILRPNQPIEACMFESDLLRGAFHLGGYYGGKLISIASFHQAEHSELQGQKQYQLRGMATLEGYREQKAGSSLIKHAEEILRKRGADLLWCNARTSASGYYKKLGFSEQGEVFDTPPVGPHILMYKRIT” was “soluble”. For “MKKQQFIDMQEQGTSTIPNLLLTHYKQLGLNETELILLLKIKMHLEKGSYFPTPNQLQEGMSISVEECTNRLRMFIQKGFLFIEECEDQNGIKFEKYSLQPLWGKLYEYIQLAQNQTQERKAEGEQKLEHHHHHH”, the “soluble on expression in E. coli” value was “soluble”. The value for “MNTDVRIEKDFLGEKEIPKDAYYGVQTIRATENFPITGYRIHPELIKSLGIVKKSAALANMEVGLLDKEVGQYIVKAADEVIEGKWNDQFIVDPIQGGAGTSINMNANEVIANRALELMGEEKGNYSKISPNSHVNMSQSTNDAFPTATHIAVLSLLNQLIETTKYMQQEFMKKADEFAGVIKMGRTHLQDAVPILLGQEFEAYARVIARDIERIANTRNNLYDINMGATAVGTGLNADPEYISIVTEHLAKFSGHPLRSAQHLVDATQNTDCYTEVSSALKVCMINMSKIANDLRLMASGPRAGLSEIVLPARQPGSSIMPGKVNPVMPEVMNQVAFQVFGNDLTITSASEAGQFELNVMEPVLFFNLIQSISIMTNVFKSFTENCLKGIKANEERMKEYVEKSIGIITAINPHVGYETAAKLAREAYLTGESIRELCIKYGVLTEEQLNEILNPYEMIHPGIAGRK” was “soluble”; that for “MPDSLKSSIGYSRRFRLFRRGEVTVLEVMAGQKAYPDTLRYLLVPEGRPQPSGFVGYTVIRTPVKRIAVFSTTHIGFLDMLGRSDGIIGVSRPEFVNTPAVRSRIRSGAIKAIGMPFSPDVEALLNLEPDLVIAPALPAARKTDYQALVQAGIPVLVVAEWLEPSPLGRAEWIKLFGALVGKEKLARERFAAIESSYLKIAALSRNLPNRPTVLTGLPVKDAWYVPTGGSYVAAMLRDAGASYHWRDLPGTGSVPLTIEAVWPVALEAEYWLNTGTVSTLDELLAVDSRFGQMRSVRERRVWNNNRLVNAAGGNAYWESGVVRPDLILKDLVMILHPGLLRAHGIGEGELTFFQEVKLEHHHHHH” was “not soluble”.
